Publication PMC2174359 (The Journal of Cell Biology, 2000)

Target: Sec13/31p complex (S. cerevisiae, UniProt Q04491 1-297; P38968 1-1273)
Assay: co-sedimentation

Sec13/31p complex, sequence (Q04491 whole entry, chain 1 of 2): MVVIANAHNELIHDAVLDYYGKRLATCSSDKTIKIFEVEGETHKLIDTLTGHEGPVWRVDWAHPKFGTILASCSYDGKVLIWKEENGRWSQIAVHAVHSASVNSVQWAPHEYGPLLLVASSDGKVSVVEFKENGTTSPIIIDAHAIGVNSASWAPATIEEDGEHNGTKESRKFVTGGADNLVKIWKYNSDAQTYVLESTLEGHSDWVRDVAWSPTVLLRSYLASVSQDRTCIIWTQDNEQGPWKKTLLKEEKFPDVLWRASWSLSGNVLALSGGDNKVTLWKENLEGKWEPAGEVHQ
Sec13/31p complex, sequence (P38968 whole entry, chain 2 of 2): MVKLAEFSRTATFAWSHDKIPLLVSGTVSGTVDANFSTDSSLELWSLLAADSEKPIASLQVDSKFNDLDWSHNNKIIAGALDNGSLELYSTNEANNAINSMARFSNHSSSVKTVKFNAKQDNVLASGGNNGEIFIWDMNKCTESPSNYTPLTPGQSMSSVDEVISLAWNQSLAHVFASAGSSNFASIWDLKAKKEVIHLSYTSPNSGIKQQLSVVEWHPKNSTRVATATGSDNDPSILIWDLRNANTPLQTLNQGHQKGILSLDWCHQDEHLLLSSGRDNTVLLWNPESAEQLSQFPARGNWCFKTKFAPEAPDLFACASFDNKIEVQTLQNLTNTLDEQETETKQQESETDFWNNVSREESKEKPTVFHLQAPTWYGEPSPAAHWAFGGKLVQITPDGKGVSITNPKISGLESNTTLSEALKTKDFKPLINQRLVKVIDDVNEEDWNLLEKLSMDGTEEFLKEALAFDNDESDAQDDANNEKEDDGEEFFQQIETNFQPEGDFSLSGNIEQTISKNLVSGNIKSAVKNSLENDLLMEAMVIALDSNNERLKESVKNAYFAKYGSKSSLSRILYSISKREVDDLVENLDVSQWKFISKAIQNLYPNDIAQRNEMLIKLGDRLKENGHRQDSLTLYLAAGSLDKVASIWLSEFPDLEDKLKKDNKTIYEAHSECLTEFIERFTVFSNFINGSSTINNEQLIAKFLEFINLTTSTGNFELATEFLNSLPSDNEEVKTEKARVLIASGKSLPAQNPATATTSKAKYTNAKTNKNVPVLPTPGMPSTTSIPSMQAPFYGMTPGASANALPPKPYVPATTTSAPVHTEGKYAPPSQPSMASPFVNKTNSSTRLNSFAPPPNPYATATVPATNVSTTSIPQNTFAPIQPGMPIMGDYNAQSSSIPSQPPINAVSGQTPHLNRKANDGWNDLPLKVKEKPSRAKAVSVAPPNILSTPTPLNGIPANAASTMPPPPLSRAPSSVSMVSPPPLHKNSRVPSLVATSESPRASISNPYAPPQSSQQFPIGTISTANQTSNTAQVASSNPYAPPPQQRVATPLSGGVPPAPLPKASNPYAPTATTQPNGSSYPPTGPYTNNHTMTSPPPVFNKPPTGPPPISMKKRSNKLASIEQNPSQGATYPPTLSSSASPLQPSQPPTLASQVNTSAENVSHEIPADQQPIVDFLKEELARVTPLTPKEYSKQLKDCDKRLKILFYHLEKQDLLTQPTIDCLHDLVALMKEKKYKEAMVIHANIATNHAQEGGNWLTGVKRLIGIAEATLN

binding result: binds
B1: Lst1p, His6-tagged (LST1-His6) (natural protein, S. cerevisiae, UniProt P38810 1-929, looked up)
chain: MSQQNILAASVSALSLDESTVHTGGASSKKSRRPHRAYHNFSSGTVPTLGNSPYTTPQLNQQDGFQQPQAFTPKQFGGFNNGSGSVMSTPVMVSQERFGASEASSPYGQSMLDMTAPQPTSHIVPTQRFEDQAQYLQRSFETCRDSVPPLPTTQFYCVDQGSCDPHLMSLSMYNIPESEHLRAATKLPLGLTIQPFSTLTPNDAEVPTIPLPMDGTPLRCRRCRAYANPKFQFTYDSSVICNICRVKMQVPGEHFAPMGPNGQRSDLNEKSELLHGTVDFLVPSIYNAIQEKELLPLHYVFLIDVSLLANENGSSLAMVEGVRSCIEYISDFQPNCEVAIIVYDNKLRFFNLRPDLDNAQEYIVSELDDVFLPFYNGLFVKPGNSMKIINDTLIKISGYISTDKYSHVPQVCYGSALQAAKLALDTVTGGQGGKIICSLNSLPTIGNGNLSLKRDNAHIAHVKCDNGFYKKLASDFLKSYISLDLYVTNAGFIDMATVGHPVEMTSGILKYYPHFQQETDAFTLVNDMVTNVSNIVGYQALLKVRCSTGLSVEQYYCDSSDNTDHDPIIPVLTRDTTLDVLLKYDSKIKTGTDVHFQTALLYTDIDGVRKVRSINTSGAVSNNIREIFKFINQNPVMRIMIKDVIKTLGDCDFVKIRRLIDDKMVEILTQYRGLVSSNSSTQLILPDSIKTLPAYMLAFEKSELMKPNAQSTRGNERIYDLLKYDSLNSAQLCYKLYPQIVPFHVLLEETDLTFYDANDKLLQINSSSINNLSVRASHSNFINGGCYLIFQGDTIYLWFNENTNRMLLQDLLSVDESLPVSQISLFSGTLPETGTSINQKASNVIKNWQQVVNKSSLPLVLLRPNVDQYYSNVMSQLLCEDKTVNRIESYDNYLVIMHKKIQEKLQKDDFIKVSTAATHENIHQKFVQF
